Test results as given in PMC6265447, “The bacterial Mre11–Rad50 homolog SbcCD cleaves opposing strands of DNA by two chemically distinct nuclease reactions”.

Target: SbcC;SbcD H84Q (Escherichia coli;Escherichia coli, UniProt P13458;P0AG76 1-1048;1-400, |H84Q)
Experiment: fluorescence anisotropy; 1 mM ATP, 5 mM Mg2+, 1 mM Mn2+; 25 mM Tris pH 7.5, 50 mM KCl, 5 mM MgCl2, 1 mM MnCl2, 1 mM DTT, 1 mM ATP where stated; 5 nM DNA, 2-1000 nM SbcCD, 20 min at 25 C
Settings: protein: recombinant;recombinant; tags: ;C-terminal His6; chain copies: 2;2; label: 5' 6-FAM; blunt

B1: 30 bp DNA (dsDNA)
DNA 1: CGCTTTATCAGAAGCCAGACATTAACGCTT
DNA 2: AAGCGTTAATGTCTGGCTTCTGATAAAGCG
- Kd: 43 ± 7 nM

B2: 25 bp DNA (dsDNA)
DNA 1: CGCTTTATCAGAAGCCAGACATTAA
DNA 2: TTAATGTCTGGCTTCTGATAAAGCG
- Kd: 146 ± 46 nM
